According to publication PMC4939007, “The GH51 α-L-arabinofuranosidase from Paenibacillus sp. THS1 is multifunctional, hydrolyzing main-chain and side-chain glycosidic bonds in heteroxylans” (Biotechnology for Biofuels, 2016):

Experiments:
Experiment in all cases: purified protein
[1] = test system: O=[N+]([O-])c1ccc(O[C@@H]2OC[C@@H](O)[C@H](O)[C@H]2O)cc1; conditions: 50 mM sodium phosphate pH 6.5, 1 mg/mL BSA, 60 °C, 0–40 mM substrate, authors' caution: maximum substrate below 2 x KM
[2] = test system: O=[N+]([O-])c1ccc(O[C@@H]2O[C@@H]([C@H](O)CO)[C@H](O)[C@H]2O)cc1; conditions: 50 mM sodium phosphate pH 6.5, 1 mg/mL BSA, 60 °C, 0–14 mM substrate, authors' caution: maximum substrate below 2 x KM
[3] = test system: O=[N+]([O-])c1ccc(O[C@@H]2O[C@@H](CO)[C@H](O)[C@H]2O)cc1; conditions: 50 mM sodium phosphate pH 6.5, 1 mg/mL BSA, 60 °C, 0–5 mM substrate

For THSAbf (Paenibacillus sp. HanTHS1), the Km [1] was 23.8 ± 4.1 mM, the kcat [1] was 10.6 ± 0.9 s⁻¹ and the kcat/Km [1] was 440 M⁻¹ s⁻¹. It also gave a Km [2] of 8.6 ± 0.9 mM, a kcat [2] of 327 ± 20 s⁻¹ and a kcat/Km [2] of 38000 M⁻¹ s⁻¹. It also gave a Km [3] of 0.31 ± 0.1 mM, a kcat [3] of 328 ± 23 s⁻¹ and a kcat/Km [3] of 1.05e+06 M⁻¹ s⁻¹.
